Results reported in patent US20200062842A1.

How the values were obtained:
[1] = molecular target: human MUC1 on the surface of MUC1 expressing tumor cells (human) (UniProt P15941); test: FACS, bone marrow aspirate of MM patient P #I
[2] = molecular target: human MUC1 on the surface of MUC1 expressing tumor cells (human) (UniProt P15941); test: FACS, bone marrow aspirate of MM patient P #3
[3] = molecular target: human MUC1 on the surface of MUC1 expressing tumor cells (human) (UniProt P15941); test: FACS, bone marrow aspirate of MM patient P #II
[4] = molecular target: human MUC1 on the surface of MUC1 expressing tumor cells (human) (UniProt P15941); test: flow cytometry, FITC-conjugated antibody, MCF7 cells; cell looks truncated
[5] = molecular target: human MUC1 on the surface of MUC1 expressing tumor cells (human) (UniProt P15941); test: flow cytometry, FITC-conjugated antibody, Raji cells; cell looks truncated
[6] = molecular target: human MUC1 on the surface of MUC1 expressing tumor cells (human) (UniProt P15941); test: flow cytometry, FITC-conjugated antibody, U266 cells; cell looks truncated
[7] = molecular target: human MUC1 on the surface of MUC1 expressing tumor cells (human) (UniProt P15941); test: flow cytometry, FITC-conjugated antibody, ARH-77 cells; cell looks truncated
[8] = molecular target: human MUC1 on the surface of MUC1 expressing tumor cells (human) (UniProt P15941); test: flow cytometry, FITC-conjugated antibody, MDA-231 cells; cell looks truncated
[9] = molecular target: human MUC1 on the surface of MUC1 expressing tumor cells (human) (UniProt P15941); test: flow cytometry, FITC-conjugated antibody, MDA-453 cells; cell looks truncated
[10] = molecular target: human MUC1 on the surface of MUC1 expressing tumor cells (human) (UniProt P15941); test: flow cytometry, FITC-conjugated antibody, OVCAR-3 cells; cell looks truncated
[11] = molecular target: human MUC1 on the surface of MUC1 expressing tumor cells (human) (UniProt P15941); test: flow cytometry, FITC-conjugated antibody, RPMI8226 cells; cell looks truncated
[12] = molecular target: human MUC1 on the surface of MUC1 expressing tumor cells (human) (UniProt P15941); test: flow cytometry, FITC-conjugated antibody, MCF7 cells; negative control
[13] = molecular target: human MUC1 on the surface of MUC1 expressing tumor cells (human) (UniProt P15941); test: flow cytometry, FITC-conjugated antibody, Raji cells; negative control
[14] = molecular target: human MUC1 on the surface of MUC1 expressing tumor cells (human) (UniProt P15941); test: flow cytometry, FITC-conjugated antibody, U266 cells; negative control
[15] = molecular target: human MUC1 on the surface of MUC1 expressing tumor cells (human) (UniProt P15941); test: flow cytometry, FITC-conjugated antibody, Ramos cells; negative control
[16] = molecular target: human MUC1 on the surface of MUC1 expressing tumor cells (human) (UniProt P15941); test: flow cytometry, FITC-conjugated antibody, ARH-77 cells; negative control
[17] = molecular target: human MUC1 on the surface of MUC1 expressing tumor cells (human) (UniProt P15941); test: flow cytometry, FITC-conjugated antibody, MDA-231 cells; negative control
[18] = molecular target: human MUC1 on the surface of MUC1 expressing tumor cells (human) (UniProt P15941); test: flow cytometry, FITC-conjugated antibody, MDA-453 cells; negative control
[19] = molecular target: human MUC1 on the surface of MUC1 expressing tumor cells (human) (UniProt P15941); test: flow cytometry, FITC-conjugated antibody, OVCAR-3 cells; negative control
[20] = molecular target: human MUC1 on the surface of MUC1 expressing tumor cells (human) (UniProt P15941); test: flow cytometry, FITC-conjugated antibody, RPMI8226 cells; negative control

UniProt P15941, sequence (P15941 24-1255): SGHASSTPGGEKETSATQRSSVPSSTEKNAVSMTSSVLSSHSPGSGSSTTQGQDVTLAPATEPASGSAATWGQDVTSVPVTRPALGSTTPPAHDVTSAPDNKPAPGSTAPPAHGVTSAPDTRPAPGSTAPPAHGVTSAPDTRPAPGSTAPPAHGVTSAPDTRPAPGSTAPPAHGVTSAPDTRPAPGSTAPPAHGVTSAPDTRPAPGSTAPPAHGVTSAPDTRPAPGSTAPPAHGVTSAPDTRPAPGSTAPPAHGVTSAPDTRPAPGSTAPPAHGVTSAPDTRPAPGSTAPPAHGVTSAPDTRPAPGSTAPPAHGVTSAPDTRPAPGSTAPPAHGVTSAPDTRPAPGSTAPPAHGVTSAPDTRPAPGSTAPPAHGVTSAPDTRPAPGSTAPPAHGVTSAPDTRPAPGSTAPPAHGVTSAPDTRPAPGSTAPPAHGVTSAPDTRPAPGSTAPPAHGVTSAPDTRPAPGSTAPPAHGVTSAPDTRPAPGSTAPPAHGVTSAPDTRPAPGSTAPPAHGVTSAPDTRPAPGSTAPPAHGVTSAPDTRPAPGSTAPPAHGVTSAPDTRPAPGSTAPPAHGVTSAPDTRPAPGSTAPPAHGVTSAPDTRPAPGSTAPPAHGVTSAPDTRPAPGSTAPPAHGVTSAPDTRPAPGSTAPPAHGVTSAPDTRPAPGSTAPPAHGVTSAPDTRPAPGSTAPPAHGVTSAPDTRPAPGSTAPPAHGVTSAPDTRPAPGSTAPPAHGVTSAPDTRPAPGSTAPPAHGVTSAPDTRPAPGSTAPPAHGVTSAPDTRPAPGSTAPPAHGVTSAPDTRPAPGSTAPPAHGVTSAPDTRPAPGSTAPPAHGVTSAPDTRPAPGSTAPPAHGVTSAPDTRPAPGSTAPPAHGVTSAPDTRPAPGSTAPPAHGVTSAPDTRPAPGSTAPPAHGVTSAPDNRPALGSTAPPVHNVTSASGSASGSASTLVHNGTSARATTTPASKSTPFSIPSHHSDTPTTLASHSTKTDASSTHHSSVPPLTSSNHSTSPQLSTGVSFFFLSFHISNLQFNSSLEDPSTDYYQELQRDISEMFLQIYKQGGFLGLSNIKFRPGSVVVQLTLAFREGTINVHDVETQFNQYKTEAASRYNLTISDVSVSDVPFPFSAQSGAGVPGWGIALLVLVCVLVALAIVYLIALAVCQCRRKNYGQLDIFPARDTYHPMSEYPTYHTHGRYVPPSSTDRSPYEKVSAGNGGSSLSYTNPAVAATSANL

In the case of H23 anti-MUC1 TRA monoclonal antibody, the % of CD138 positive cells immunoreactive [1] is reported as 78.3%, the % of cells immunoreactive [2] is reported as 0.37% and the % of CD138 positive cells immunoreactive [3] is reported as 59.2%. The geometric mean (FACS) [4] was 4, the geometric mean (FACS) [5] was 3 and the geometric mean (FACS) [6] was 39. It also gave a geometric mean (FACS) [7] of 68, a geometric mean (FACS) [8] of 66 and a geometric mean (FACS) [9] of 80. The geometric mean (FACS) [10] was 456 and the geometric mean (FACS) [11] was 585.

In the case of “Rabbit control (species-specific isotype control, FITC conjugated) (antibody)”, the geometric mean (FACS) [12] is reported as 236, the geometric mean (FACS) [13] is reported as 128 and the geometric mean (FACS) [14] is reported as 471. It also gave a geometric mean (FACS) [15] of 111, a geometric mean (FACS) [16] of 161 and a geometric mean (FACS) [17] of 215. The geometric mean (FACS) [18] was 165, the geometric mean (FACS) [19] was 418 and the geometric mean (FACS) [20] was 738.

With “Mouse control (species-specific isotype control, FITC conjugated) (antibody)” the geometric mean (FACS) [12] was 230, the geometric mean (FACS) [13] was 131 and the geometric mean (FACS) [14] was 485. The geometric mean (FACS) [15] was 198, the geometric mean (FACS) [16] was 176 and the geometric mean (FACS) [17] was 245. For the same substance, the geometric mean (FACS) [18] was 182, the geometric mean (FACS) [19] was 370 and the geometric mean (FACS) [20] was 745.
